Patent publication US20230181756A1 (Novartis, published 2023)
Where a chain is given by its changes, count along the chain named. Names may count otherwise.

Tests used:
CXCR4 = molecular target: T1, CXCR4 (UniProt P61073 1-352, limits assumed); assay: FACS on HEK293-CXCR4 cells
T1 construct: whole, on cells; also called HEK293-CXCR4

human CCR7 [1] = molecular target: T2, human CCR7 (human, UniProt P32248 25-378); assay: ELISA on CCR7-expressing VLPs, pH 7.4 buffer
T2 construct: The assay field tells which; also called hCCR7; NIH3T3.hCCR7
T2 sequence: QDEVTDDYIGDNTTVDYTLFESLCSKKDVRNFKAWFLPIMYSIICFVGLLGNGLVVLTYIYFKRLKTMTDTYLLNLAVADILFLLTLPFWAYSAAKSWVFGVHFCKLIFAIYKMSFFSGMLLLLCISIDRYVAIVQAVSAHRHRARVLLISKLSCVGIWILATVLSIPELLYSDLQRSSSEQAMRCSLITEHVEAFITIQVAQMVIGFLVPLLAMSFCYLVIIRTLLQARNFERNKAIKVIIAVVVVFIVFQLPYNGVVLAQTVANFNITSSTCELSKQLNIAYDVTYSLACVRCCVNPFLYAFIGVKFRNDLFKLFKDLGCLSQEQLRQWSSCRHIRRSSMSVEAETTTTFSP

CCR8 = molecular target: T3, CCR8 (UniProt P51685 1-355, limits assumed); assay: FACS on CHO-CCR8 cells
T3 construct: whole, on cells; also called CHO-CCR8
T3 sequence (P51685 whole entry): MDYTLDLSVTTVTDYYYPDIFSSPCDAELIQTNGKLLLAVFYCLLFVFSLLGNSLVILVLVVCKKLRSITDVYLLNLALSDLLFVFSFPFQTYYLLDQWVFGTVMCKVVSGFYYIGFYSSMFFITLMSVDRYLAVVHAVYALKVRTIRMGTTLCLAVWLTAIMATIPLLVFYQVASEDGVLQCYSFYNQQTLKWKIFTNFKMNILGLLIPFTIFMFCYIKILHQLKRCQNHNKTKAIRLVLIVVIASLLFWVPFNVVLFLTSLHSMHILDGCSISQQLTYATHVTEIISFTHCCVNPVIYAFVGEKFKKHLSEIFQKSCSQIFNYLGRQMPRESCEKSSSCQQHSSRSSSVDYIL

CCR6 = molecular target: T4, CCR6 (UniProt P51684 1-374, limits assumed); assay: FACS on PF382 cells (CCR7-/CCR9+/CCR6+)
T4 construct: whole, on cells; also called PF382 cells (CCR7-/CCR9+/CCR6+)
T4 sequence (looked up): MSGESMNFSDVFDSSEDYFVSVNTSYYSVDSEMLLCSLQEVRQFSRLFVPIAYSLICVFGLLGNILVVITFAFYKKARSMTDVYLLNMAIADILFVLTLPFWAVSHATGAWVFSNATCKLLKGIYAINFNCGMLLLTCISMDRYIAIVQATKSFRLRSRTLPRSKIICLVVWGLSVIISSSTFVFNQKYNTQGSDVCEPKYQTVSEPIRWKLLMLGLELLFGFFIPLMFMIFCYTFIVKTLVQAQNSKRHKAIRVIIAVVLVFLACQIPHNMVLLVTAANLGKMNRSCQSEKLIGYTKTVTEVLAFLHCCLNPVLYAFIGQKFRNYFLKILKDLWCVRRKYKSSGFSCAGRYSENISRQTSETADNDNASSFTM

CCR9 = molecular target: T5, CCR9 (UniProt P51686 1-369, limits assumed); assay: FACS on PF382 cells (CCR7-/CCR9+/CCR6+)
T5 construct: whole, on cells; also called PF382 cells (CCR7-/CCR9+/CCR6+)
T5 sequence (looked up): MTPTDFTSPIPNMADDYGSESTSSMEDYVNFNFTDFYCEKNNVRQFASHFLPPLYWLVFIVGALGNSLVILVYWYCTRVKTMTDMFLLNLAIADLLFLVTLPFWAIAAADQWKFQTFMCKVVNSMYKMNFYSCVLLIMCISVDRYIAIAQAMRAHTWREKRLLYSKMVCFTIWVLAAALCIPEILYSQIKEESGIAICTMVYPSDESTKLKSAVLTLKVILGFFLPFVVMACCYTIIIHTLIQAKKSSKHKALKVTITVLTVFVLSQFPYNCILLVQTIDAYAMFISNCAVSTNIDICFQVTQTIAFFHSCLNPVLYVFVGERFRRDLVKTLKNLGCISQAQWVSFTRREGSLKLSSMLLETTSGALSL

human CCR7 [2] = molecular target: T2, human CCR7; assay: ELISA on CCR7-expressing VLPs, Kd at pH 5.8 over Kd at pH 7.4
human CCR7 [3] = molecular target: T2, human CCR7; assay: FACS titration, human CD4+ T cells from PBMC
human CCR7 [4] = molecular target: T2, human CCR7; assay: ELISA on CCR7-expressing VLPs, pH 5.8 buffer
rat CCR7 [5] = molecular target: T6, rat CCR7 (rat, UniProt P47774 25-378 (mouse entry)); assay: FACS titration, NIH3T3 cells expressing rat CCR7
T6 construct: also called NIH3T3.rat CCR7
T6 chain: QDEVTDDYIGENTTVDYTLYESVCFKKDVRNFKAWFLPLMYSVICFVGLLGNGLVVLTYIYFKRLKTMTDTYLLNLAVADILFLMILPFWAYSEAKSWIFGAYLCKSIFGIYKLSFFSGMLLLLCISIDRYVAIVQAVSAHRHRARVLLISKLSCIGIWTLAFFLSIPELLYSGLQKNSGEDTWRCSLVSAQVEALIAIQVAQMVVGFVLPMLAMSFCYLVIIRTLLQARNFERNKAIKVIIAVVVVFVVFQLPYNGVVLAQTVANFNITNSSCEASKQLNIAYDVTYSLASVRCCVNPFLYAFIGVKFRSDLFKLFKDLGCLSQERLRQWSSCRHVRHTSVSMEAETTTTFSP

human CCR7 [6] = molecular target: T2, human CCR7; assay: FACS titration, Jeko-1 cancer cells (CCR7+)
cynomolgus monkey CCR7 [7] = molecular target: T7, cynomolgus monkey CCR7 (cynomolgus monkey, UniProt P32248 25-378 (human entry)); assay: FACS titration, NIH3T3 cells expressing cyno CCR7
T7 construct: also called Cyno CCR7; NIH3T3.cyno CCR7
T7 sequence: T2 sequence with D174G

human CCR7 [8] = molecular target: T2, human CCR7; assay: FACS titration, NIH3T3 cells expressing human CCR7
mouse CCR7 [9] = molecular target: T8, mouse CCR7 (mouse, UniProt P47774 25-378); assay: FACS titration, CD-1 mouse CD4+ T cells
T8 construct: also called NIH3T3.mouse CCR7
T8 sequence: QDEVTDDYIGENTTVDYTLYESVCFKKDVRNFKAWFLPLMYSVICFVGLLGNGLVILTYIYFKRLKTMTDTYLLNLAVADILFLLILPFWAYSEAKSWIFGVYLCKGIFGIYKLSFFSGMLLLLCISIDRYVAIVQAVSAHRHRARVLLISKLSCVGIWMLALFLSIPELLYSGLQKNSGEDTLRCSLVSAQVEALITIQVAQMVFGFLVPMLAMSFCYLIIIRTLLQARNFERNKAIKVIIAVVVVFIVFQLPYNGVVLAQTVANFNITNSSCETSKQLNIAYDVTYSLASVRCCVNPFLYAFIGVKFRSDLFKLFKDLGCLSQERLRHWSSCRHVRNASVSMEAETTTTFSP

rat CCR7 [10] = molecular target: T6, rat CCR7; assay: FACS titration, Wistar rat CD4+ T cells
cynomolgus monkey CCR7 [11] = molecular target: T7, cynomolgus monkey CCR7; assay: FACS titration, cynomolgus CD4+ T cells
human CCR7 [12] = molecular target: T2, human CCR7; assay: cell-based or functional assay
human CCR7 [13] = molecular target: T2, human CCR7; assay: FACS titration, human CD4+ T cells from PBMC; remark: listed apart in the source
mouse CCR7 [14] = molecular target: T8, mouse CCR7; assay: FACS titration, NIH3T3 cells expressing mouse CCR7
human CCR7 [15] = molecular target: T2, human CCR7; assay: FACS on DEL cells, antibody titrated to 100 nM, panel 'ligand 0uM' (no CCL19), anti-hFc.PE detection
human CCR7 [16] = molecular target: T2, human CCR7; assay: FACS titration, DEL cancer cells (receptor density ~100,000)
human CCR7 [17] = molecular target: T2, human CCR7; assay: cell-based or functional assay; remark: listed apart in the source
human CCR7 [18] = molecular target: T2, human CCR7; assay: FACS on DEL cells, antibody titrated to 100 nM together with a constant 1 uM CCL19 (competitor), panel 'ligand 1uM', anti-hFc.PE detection
[19] = molecular target: T9, recombinant hCCR7 (Origene #TP306614) (human, UniProt P32248 25-378, limits assumed); assay: ELISA on plate-coated recombinant hCCR7, antibody titrated, anti-hFc-HRP detection, OD 650 nm
T9 construct: Bought protein coated on ELISA plates; also called recombinant CCR7
T9 sequence (looked up): T2 sequence

human CCR7 [20] = molecular target: T2, human CCR7; assay: FACS titration, human CD4+ T cells (receptor density <2,000)
[21] = molecular target: T9, recombinant hCCR7 (Origene #TP306614); assay: ELISA, recombinant CCR7 coated at 3.5 ug/ml, antibody titrated
human CCR7 [22] = molecular target: T2, human CCR7; assay: FACS titration, NIH3T3.hCCR7 cells (receptor density >1,000,000)

T1 sequence (P61073 whole entry): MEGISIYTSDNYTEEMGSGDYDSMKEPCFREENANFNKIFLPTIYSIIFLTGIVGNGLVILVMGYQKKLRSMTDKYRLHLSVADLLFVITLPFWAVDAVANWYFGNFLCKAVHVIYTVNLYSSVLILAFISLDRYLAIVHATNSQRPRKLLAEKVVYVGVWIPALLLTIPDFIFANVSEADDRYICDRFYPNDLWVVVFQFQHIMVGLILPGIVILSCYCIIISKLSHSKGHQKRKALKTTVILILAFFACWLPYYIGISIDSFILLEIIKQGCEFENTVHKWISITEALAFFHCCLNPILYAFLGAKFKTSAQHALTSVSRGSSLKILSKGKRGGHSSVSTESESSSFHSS

B1: 684E12 humanized CysMab (Fc Wild Type) (antibody, V domains shown)
VH: EVQLVESGGGLVKPGGSLRLSCAASGFTFSNFAMSWVRQAPGKGLEWVSTISTGGTYTYYPDSVKGRFTISRDNAKNSLYLQMNSLRAEDTAVYYCARRGYSGVDKWGQGTTVTVSS
VL: DVVMTQSPLSLPVTLGQPASISCKSGQSLLDSTGKTYLNWFLQRPGQSPRRLIYLVSKLDSGVPDRFSGSGSGTDFTLKISRVEAEDVGVYYCWQGTHFPQTFGGGTKLEIK
notes: Human IgG1 kappa with CysMab cysteines; also called Humanized CysMab antibody 684E12
In the case of B1, the binding result (CXCR4) is reported as “no binding (tested: 5 ug/ml)”, the Kd (human CCR7 [1]) is reported as 0.0374 nM and the binding result (CCR8) is reported as “no binding (tested: 5 ug/ml)”. The binding result (CCR6) was “no binding (tested: 5 ug/ml)”, the binding result (CCR9) was “no binding (tested: 5 ug/ml)” and the “fold change (pH 5.8/7.4)” value (human CCR7 [2]) was 13 fold. For the same binder, the EC50 (human CCR7 [3]) was 6.7 nM and the Kd (human CCR7 [4]) was 0.504 nM.

B2: 121G12 non-humanized CysMab (antibody, human IgG1, kappa, V domains shown)
VH: EVQLVESGGGLVKPGGSLKLSCAASGFTFSTYAMSWVRQTPEKRLEWVATISDGGSYSYYPDNVKGRFTISRDNAKNNLYLQMSHLKSEDTAMYYCARRGSRYEEYYVMDYWGQGTSVTVSS
VL: DIVLTQSPATLSVTPGDSVSLSCRASQSISNNLHWYQQKSHESPKLLIKYASQSISGIPSRFSGSGSGTDFTLSINSVETEDFGMYFCQQSNSWLTFGAGTKLGLKR
notes: Chimeric: murine variable regions on human IgG1 kappa with CysMab cysteines (E152C, S375C) and wild type Fc; also called Parental 121G12 hIgG1 CysMab; Non-humanized CysMab antibody 121G12
In the case of B2, the EC50 (rat CCR7 [5]) is reported as 2.4 nM, the EC50 (human CCR7 [6]) is reported as 1.5 nM and the EC50 (cynomolgus monkey CCR7 [7]) is reported as 1.3 nM. It also gave an EC50 (human CCR7 [8]) of 1.3 nM, an EC50 (mouse CCR7 [9]) of 48 to 51 nM and an EC50 (rat CCR7 [10]) of 18 to 31 nM. For the same binder, the EC50 (cynomolgus monkey CCR7 [11]) was 5.8 to 12 nM, the “ADCC activity; IC50 (nM); reporter assay, JVM2 targets and Jurkat-V158 effectors” value (human CCR7 [12]) was 0.077 nM and the EC50 (human CCR7 [13]) was 22 to 30 nM. It also gave an EC50 (mouse CCR7 [14]) of 2.5 nM.

B3: 684E12 non-humanized CysMab (antibody, human IgG1, kappa, V domains shown)
VH: EVHLVESGGGLVKPGGSLKLSCAASGFTFSNFAMSWVRQTPEKRLEWVATISTGGTYTYYPDSVKGRFTISRDNAKKTLYLQMSSLRSEDTAMYYCTRRGYDGVDKWGQGTTLTVSS
VL: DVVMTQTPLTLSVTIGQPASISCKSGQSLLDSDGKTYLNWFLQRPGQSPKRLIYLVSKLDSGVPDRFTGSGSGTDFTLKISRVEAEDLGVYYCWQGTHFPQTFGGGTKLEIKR
notes: Chimeric human IgG1 kappa with CysMab cysteines and wild type Fc; also called Parental 684E12 hIgG1 CysMab; Non-humanized CysMab antibody 684E12
B3 was tested, and the binding result (rat CCR7 [5]) was “no binding”, the EC50 (human CCR7 [6]) was 12 nM and the EC50 (human CCR7 [8]) was greater than 30 nM. For the same binder, the “ADCC activity; IC50 (nM); reporter assay, JVM2 targets and Jurkat-V158 effectors” value (human CCR7 [12]) was 2.63 nM and the binding result (mouse CCR7 [14]) was “no binding”.

B4: Humanized 674J13.CysMab.DAPA (antibody, human IgG1, kappa, V domains shown)
VH: DVQLQESGPGLVKPSQTLSLTCTVSGYSITSGYSWHWIRQHPGKGLEWMAHIHSSGSTNYNPSLKSRITISRDTSKNQFSLKLSSVTAADTAVYYCARGGVQAFAYWGQGTLVTVSS
VL: EIVLTQSPATLSASPGERVTMSCSASSSVIYMHWYQQKPGQAPRRWIYDTSKLASGVPARFSGSGSGTDYTLTISSMEPEDAAVYYCQQWSSNPLTFGQGTKLEIKR
notes: Human IgG1 kappa with D265A/P329A and CysMab cysteines; also called 674J13 (Humanized, CysMab DAPA)
B4 was tested, and the “EC50 (read off the curve)” value (human CCR7 [15]) was roughly 2 nM, the EC50 (human CCR7 [16]) was 0.47 nM and the “pHrodo (6 h MFI), internalization, CD4+ T cells (receptor numbers 2000)” value (human CCR7 [17]) was 402 MFI. The “pHrodo (6 h MFI), internalization, CMLT1 cells (receptor numbers 19583)” value (human CCR7 [17]) was 561 MFI, the “pHrodo (6 h MFI), internalization, DEL cells (receptor numbers 110685)” value (human CCR7 [17]) was 3780 MFI and the “pHrodo (6 h MFI), internalization, JVM3 cells (receptor numbers 8717)” value (human CCR7 [17]) was 146 MFI. For the same binder, the “pHrodo (6 h MFI), internalization, Jeko-1 cells (receptor numbers 28852)” value (human CCR7 [17]) was 1390 MFI, the “pHrodo (6 h MFI), internalization, KE97 cells (receptor numbers 152093)” value (human CCR7 [17]) was 4420 MFI and the “pHrodo (6 h MFI), internalization, L540 cells (receptor numbers 167549)” value (human CCR7 [17]) was 11800 MFI. For the same binder, the “pHrodo (6 h MFI), internalization, L1236 cells (receptor numbers 61602)” value (human CCR7 [17]) was 5820 MFI, the “pHrodo (6 h MFI), internalization, MJ cells (receptor numbers 111121)” value (human CCR7 [17]) was 3260 MFI and the “pHrodo (6 h MFI), internalization, MOTN1 cells (receptor numbers 84200)” value (human CCR7 [17]) was 2540 MFI. The “pHrodo (6 h MFI), internalization, Mec2 cells (receptor numbers 50840)” value (human CCR7 [17]) was 3000 MFI, the “EC50 (read off the curve)” value (human CCR7 [18]) was roughly 2 nM and the “EC50 (read off the curve)” value [19] was roughly 0.07 nM. For the same binder, the EC50 (human CCR7 [20]) was roughly 2 nM, the Kd [21] was 0.006 nM and the EC50 (human CCR7 [22]) was 0.64 nM.
